From article PMC5868266

Columns and labels:
[1] = target: equine C3b (horse (endogenous in equine plasma)); experiment: SPR; same injections as a1, steady-state binding model; for SCIN-A on eqC3b the concentrations were subsaturating, so the fit used a constant Rmax based on the eqSCIN/eqC3b interaction
human C3b (human) [2] = target: human C3b (human) (UniProt P01024); experiment: as above
human C3b (human) [3] = target: human C3b (human) (UniProt P01024); experiment: SPR
[4] = target: equine alternative pathway C3 convertase (eqC3bBb) (horse (endogenous in equine plasma))
[5] = target: equine C3b (horse (endogenous in equine plasma)); experiment: SPR; Biacore T200; biotinylated C3b captured on a neutravidin-coupled CMD-200 chip (eqC3b 3,000 RU, human C3b 4,200 RU); SCIN injected 2 min at 2.5-2,500 nM, dissociation 3 min; 25 °C; 20 mM HEPES pH 7.3, 140 mM NaCl, 0.005% Tween 20; 30 μl/min; triplicate; 1:1 kinetic model (KD = kd/ka)
human C3b (human) [6] = target: human C3b (human) (UniProt P01024); experiment: as above

Substance	Kd [1] [nM]	Kd (human C3b (human) [2]) [nM]	Kd (human C3b (human) [3]) [nM]	koff (human C3b (human) [3]) [s⁻¹]	kon (human C3b (human) [3]) [M⁻¹ s⁻¹]	inhibition of eqC3 cleavage (α-chain to α′) by fluid-phase eqC3bBb, eqSCIN 0.04-10 μM, densitometry of reducing SDS-PAGE [4] [µM]	Kd [5] [nM]	koff [5] [s⁻¹]	kon [5] [M⁻¹ s⁻¹]	Kd (human C3b (human) [6]) [nM]	koff (human C3b (human) [6]) [s⁻¹]	kon (human C3b (human) [6]) [M⁻¹ s⁻¹]
staphylococcal complement inhibitor SCIN-A (natural protein)	29000	140	140	0.092	630000							
equine staphylococcal complement inhibitor (eqSCIN) (natural protein)	220	300				0.61	61	0.11	1.8e+06	230	0.13	550000
